Reference: PMC8427654

Target: T1, split luciferase wild-type (WT) Apaf-1 (apoptotic protease activating factor-1), O14727
T1 chain: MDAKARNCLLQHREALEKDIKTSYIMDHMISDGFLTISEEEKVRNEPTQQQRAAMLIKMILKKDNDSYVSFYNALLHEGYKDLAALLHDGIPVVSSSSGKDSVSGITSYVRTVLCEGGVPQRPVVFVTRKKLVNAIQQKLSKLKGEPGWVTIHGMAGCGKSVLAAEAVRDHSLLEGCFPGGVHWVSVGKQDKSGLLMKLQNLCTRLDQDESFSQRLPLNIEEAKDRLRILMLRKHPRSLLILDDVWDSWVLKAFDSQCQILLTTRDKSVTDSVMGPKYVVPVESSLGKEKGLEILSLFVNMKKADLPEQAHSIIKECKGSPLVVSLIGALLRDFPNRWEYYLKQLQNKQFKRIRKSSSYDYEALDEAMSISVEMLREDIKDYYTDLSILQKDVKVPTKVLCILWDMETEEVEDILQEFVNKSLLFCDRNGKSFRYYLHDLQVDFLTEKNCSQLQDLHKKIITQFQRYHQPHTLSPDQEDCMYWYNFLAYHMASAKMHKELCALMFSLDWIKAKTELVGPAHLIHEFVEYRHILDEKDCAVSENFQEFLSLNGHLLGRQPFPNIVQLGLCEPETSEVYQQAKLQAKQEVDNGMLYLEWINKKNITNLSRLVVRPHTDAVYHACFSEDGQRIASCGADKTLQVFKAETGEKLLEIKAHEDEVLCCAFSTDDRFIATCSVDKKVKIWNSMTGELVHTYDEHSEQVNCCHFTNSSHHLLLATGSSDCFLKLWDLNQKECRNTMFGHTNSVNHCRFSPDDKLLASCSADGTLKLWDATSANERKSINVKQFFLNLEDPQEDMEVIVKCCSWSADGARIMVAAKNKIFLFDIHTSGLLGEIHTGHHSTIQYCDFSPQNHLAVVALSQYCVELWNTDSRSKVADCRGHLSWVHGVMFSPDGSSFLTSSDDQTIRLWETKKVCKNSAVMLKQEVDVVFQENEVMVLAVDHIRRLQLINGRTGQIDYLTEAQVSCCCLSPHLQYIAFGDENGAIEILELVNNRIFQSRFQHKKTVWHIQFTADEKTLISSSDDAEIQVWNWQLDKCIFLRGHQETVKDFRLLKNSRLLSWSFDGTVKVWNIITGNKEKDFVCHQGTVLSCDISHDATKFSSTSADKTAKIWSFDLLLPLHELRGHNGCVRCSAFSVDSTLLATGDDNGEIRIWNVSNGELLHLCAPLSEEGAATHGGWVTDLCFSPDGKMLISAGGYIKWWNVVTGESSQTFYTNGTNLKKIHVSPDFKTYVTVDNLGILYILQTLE
Assay: split reporter
Conditions: remark: other sources report otherwise

luciferase activity, fold over pcDNA3 transfection control: 32 fold
B1: split luciferase wild-type (WT) Apaf-1 (apoptotic protease activating factor-1), O14727 1-1248 (natural protein)
chain: T1 chain
